Assay results taken from US20220251174A1.

Target: SARS-CoV-2 Spike protein (Wuhan-1 isolate) on VSV pseudovirus particles (SARS-CoV-2) (UniProt P0DTC2)
Test: cell-based or functional assay

For “REGN10987 (benchmark, human IgG1) (antibody)”, the IC50 in pseudovirus assays was 0.45 µg/mL.

In the case of “REGN10933 (benchmark, human IgG1) (antibody)”, the IC50 in pseudovirus assays is reported as 0.67 µg/mL.
